Experiments:
[1] = target: human interleukin-6 (human) (UniProt P05231); experiment: SPR (BIAcore), purified scFv
[2] = target: human interleukin-6 (human) (UniProt P05231); experiment: SPR (BIAcore), human IL-6 immobilised, IL6gk3-2 scFv injected at 10 to 80 nM

UniProt P05231, sequence (P05231 29-212 limits assumed): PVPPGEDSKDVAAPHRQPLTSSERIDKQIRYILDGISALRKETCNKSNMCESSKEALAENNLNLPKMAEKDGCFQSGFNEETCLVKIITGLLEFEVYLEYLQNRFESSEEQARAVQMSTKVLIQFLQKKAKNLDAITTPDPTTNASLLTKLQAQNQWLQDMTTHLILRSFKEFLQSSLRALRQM

Kd [1]: 13 nM
koff [2]: 0.0008 s⁻¹
kon [2]: 60000 M⁻¹ s⁻¹
B1: IL6gk3-2 scFv (purified soluble single chain Fv of the human anti-human IL-6 antibody clone IL6gk3-2) (scFv, part only; not given: linker and E-tag, V domains shown, not shown: another chain or arm of the molecule; small tags and cut ends)
VH: QVNLRESGGDLVKPGGSLRLSCAASGFTFRKYYMAWIRQAPGKGPEWLSTISNSGDIIDYADSVRGRFSISRDNAQKSLYLQMTSLRPDDSAIYYCAREYFFSFDVWGRGTMVTVSS
VL: DIVMTQSPSSVSASVGDRVTIFCRASQDIRNWVAWYQQKPGEAPKLLIYDGSSLQSGVPSRFSGSGSGTEFTLTISSLQPEDFATYYCQQSDSTPITFGQGTRLEIK
